This note sets out measurements from PMC3668531 (FEBS Open Bio, 2012).

Broadly, the stoichiometry N is the number of molecules, sites or subunits per partner or assembly.

This data set concerns the molecule itself. In words: crystal structure; H101N crystals by vapour diffusion (7-8% PEG 20,000, 50 mM MES pH 6.3), 1 mM MnCl2 added, quick soak in 33% (w/v) L-rhamnose or D-allose; data at 100 K; four molecules (Mol-A to Mol-D) forming the tetramer.

B1: mutant P. stutzeri L-RhI with a substitution of His101 with Asn (H101N) (enzyme, Pseudomonas stutzeri)
chain: MAEFRIAQDVVARENDRRASALKEDYEALGANLARRGVDIEAVTAKVEKFFVAVPSWGVGTGGTRFARFPGTGEPRGIFDKLDDCAVIQQLTRATPNVSLNIPWDKADPKELKARGDALGLGFDAMNSNTFSDAPGQAHSYKYGSLSHTDAATRAQAVEHNLECIEIGKAIGSKALTVWIGDGSNFPGQSNFTRAFERYLSAMAEIYKGLPDDWKLFSEHKMYEPAFYSTVVQDWGTNYLIAQTLGPKAQCLVDLGHHAPNTNIEMIVARLIQFGKLGGFHFNDSKYGDDDLDAGAIEPYRLFLVFNELVDAEARGVKGFHPAHMIDQSHNVTDPIESLINSANEIRRAYAQALLVDRAALSGYQEDNDALMATETLKRAYRTDVEPILAEARRRTGGAVDPVATYRASGYRARVAAERPASVAGGGGII
As for B1, the “stoichiometry N” value came out at 4.
